Assay: soluble on expression in E. coli; label from the status in PepcDB or PDB records

Row | Sequence | soluble on expression in E. coli
1 | MNETIAFRPEGRASIKDVVVNYTLASLDELEQLHPALNLLAHPSIVRGSHDFFVRCYDAGVQHAQAGAAETVAVLPDSLPQERQRSGLLCAAAGRLDALRQPLTHNRLCDLASQFCAGMADVDSETRSGFYTVRSISLPVYRRLLRDQHSHGVCLQQALLHLLAWKSDSPWARQQAQRLLWQGGVLGDKGEFALMTLDDELRERQIGWPGLWSLLAVTGFLAKFPAGPIFAD | not soluble
2 | MPPEMEGFLYLKSDGRKSWKKHYFVLRPSGLPPEMEGFLYLKSDGRKSWKKHYFVLRPSGLMYHDRRRTGFRQYETYMKQKQSADWQLDELLEELEALETQLNSSNGGDQLLLGVSGIPASSSRENVKSISTLPPPPPALSYHQTPQQPQLLHHHNNHLGYQNGIHQITSINSAASSCSSPDGDSAFGDSSSTESSNNRCRNSAFSSNDSCRDSLNTPSPTQVSPRNGELNAEEAKAQKIRQALEKMKEAKVTKIFVKFFVEDGEALQLLIDERWTVADTLKQLAEKNHIALMEDHCIVEEYPELYIKRVYEDHEKVVENIQMWVQDSPNKLYFMRRPDKYAFISRPELYLLTPKTSDHMEIPSGDQWTIDVKQKFVSEYFHREPVVYYAPKSKKPTTKDLTCLMNLHSNQVYTGIGWEKKYKSPTPWCISIKLTALQMKRSQFIKYICAEDEMTFKKWLVALRIAKNGAELLENYERACQIRRETLGPASSMSAASSSTAISEVPHSLSHHQRTPSVASSIQLSSHMMNNPTHPLSVNVRNQSPASFSVNSCQQSHPSRTSAKLEIQYDEQPTGTIKRAPLDVLRRVSRASTSSPTIPQEESDSDEEFPAPPPVASVMRMPPPVTPPKPCTPLTSKKAPPPPPKRSDTTKLQSASPMAPAKNDLEAALARRREKMATMEC | not soluble
3 | MLGRRAVSVHRFLSRAARQSVTAASSAQPSLQAKTSLLEPLVQNVRITSSANFHMSAVRMSDVITVEGPAFAESISEGDIRWLKQKGDHVNEDELVAEIETDKTSVEVPAPQAGTIVEFLVEDGAKVTAKQKLYKLQPGAGGGSSSAPAKEEPKSAPAKEESKPAPAKEDSKPAVTAAAPPKPVSGDIPKSAPPVARPPSTPSSSTPVGAVPVTRVVVPKGVDPSHAITGARDEVRVKANRMRMRIAQRLKDAQNTYAMLTTFNEIDMSSLIEMRKTYQKDFVAKHGVKLGMMSPFVRAAAYALQESPVVNAVLDENEIVYRHFVDISVAVATPKGLVVPVLRNVESMNYAQIELELANLGVKARDGKLAVEDMEGGTFTISNGGVFGSMFGTPIINPPQSAILGMHGVFDRVVPVNGKPEIRPIMQIALTYDHRLIDGREAVTFLKKIKTAVEDPRIMFMNL | not soluble
4 | MSLKPLIKIETERTSLIYQVADNGRLYQKYLGKKLNHDSDIQYLPQGTEAYLTHGMEDYFEPAIHIRHNDNNSSLLLKYVDHSSNAIGNGVNETVITLKDDKYPVTVKLHYVAYGKENIIRTFTEISHEEKKPVILCKYASSMLHLNSSKYFLTEFSGDWAHEANVTERELAFGKKVIDTKLGARANMFVSPFFQLALDNPSQENAGEVLVGTIGWTGNFRFTFEVDNKNELRIISGINPYDSEYSLPAREVFRTPDFYFTYSTQGKGEASRNFHDWARNHQVKNGNDTRMTLLNNWESTYFDFDENKLIGLMDEATKLGVDMFLLDDGWFANKYPRSSDHQGLGDWEETADKLPNGVGRLVEEAQKKGIKFGIWIEPEMVNPKSELYEKHKDWVIHLPNRDEYYFRNQMVLDLSNPKVQDHVFGVVDNLMTKYPGIAFFKWDCNSPITNIYSVYLKDKQSHLYVDYVRGLYKVLDRIKAKYPNLPMMLCAGGGGRSDYEALKYFTEFWPSDNTDPIERLFIQWGYSQIFPSKTLCAHVTTWNRGTSIKFRTDVAMMCKLGFDIKLEDMNQNEHLYCDQAVKNYNRLKPVILEGDLYRLVSPYGSNHTSSMFVGKDKKTAAVFAFDIHPRYAEKTLPVRLQGLNADKKYRVKEINMMPGSGSSLKGNNQVFSGEYLMNVGLDLFTTQQLNSRLIEITEEGHHHHHH | soluble
5 | GSITQPTAINVIFPDPALANAIKIAAGKSNVTDTVTQADLDGITTLSAFGTGVTTIEGVQYLNNLIGLELKDNQITDLAPLKNLTKITELELSGNPLKNVSAIAGLQSIKTLDLTSTQITDVTPLAGLSNLQVLYLDLNQITNISPLAGLTNLQYLSIGNAQVSDLTPLANLSKLTTLKADDNKISDISPLASLPNLIEVHLKNNQISDVSPLANTSNLFIVTLTNQTITNQPVFYNNNLVVPNVVKGPSGAPIAPATISDNGTYASPNLTWNLTSFINNVSYTFNQSVTFKNTTVPFSGTVTQPLTE | soluble
6 | MGSDKIHHHHHHMATPETILSVKDLRVRFRTLDGAVEAVKGINIHVNAGETVAVVGESGSGKSQTMMAAMSLLASNGEATGSVDYRGRNLLTLSKSDLNKVRGAKISMIFQEPMTSLDPLYSIGNQLIEPIRRHRGLNAAEAREEALKLLRLVHIPDPERRMKSYPHEMSGGQRQRVMIAMALANDPDILIADEPTTALDVTIQAQILMLLAELQRKLGMAIVFITHDLGIVRRFADRVYVMRQGEVVEEGEAGAIFANPQHAYTKMLLAAEPTGSKAAPPANAPVVLEGRHVEVTFKIGGGFLAGEPLMLRAVDDISIRLQRNQTIGIVGESGSGKSTLGRALLRLLPSDGLIRFGDRDISTADRQAMRPLRRQMQLVFQDPFGSLSPRMTVGQVITEGLLVHEPNLSGKQRDQRAVEALREVGLDPNARNRYPHEFSGGQRQRIAIARAMILKPKMVVLDEPTSALDRSVQKQIVELLRKLQADHELSYLFISHDLSVVRAMADYIIVMKQGKIVEEGPTEAIFSNPQHVYTQTLMAAAIDVTRFRLSA | not soluble
7 | ATHEVHMLNKGESGAMVFEPAFVRAEPGDVINFVPTDKSHNVEAIKEILPEGVESFKSKINESYTLTVTEPGLYGVKCTPHFGMGMVGLVQVGDAPENLDAAKTAKMPKKARERMDAELAQVN | soluble
8 | MEGGFGSDFGGSGSGKLDPGLIMEQVKVQIAVANAQELLQRMTDKCFRKCIGKPGGSLDNSEQKCIAMCMDRYMDAWNTVSRAYNSRLQRERANM | not soluble
9 | MAPAPAAEFWEARYRDTGRVWSGRPNELLVQEAGGLAPGTALDLGCGEGADAVWLASRGWRVTGVDISATALERAAGHADGAGVGDRVLWERHELGPSFPEGSFDLVSAHYLQSPVALDQQAVLRAAARAVAPGGTLLVVMHAGWPSWQTEPPFDAAFPTLDGVLAELALPEGEWSVETRRTARRPLEHHHHHH | not soluble
10 | MSLDYANGNHVLIIPKYKGSLLFTKHKIRGIEFPGGKREKGEASETAAAREVFEETGATIKYCEYIAQYKVDRQIGMSFTKDVFMVEIEAITEQPDYFETDGPLLYKSLSEIPEDKKSYLLKDPAILQCLERVIELGFYSEGHHHHHH | not soluble
11 | MVKESGMASLLLENPYYGYRKPKDQLRSSLKNVSDLFVMGGALILESAALLHWLERDGFWPLGMTGISMGGHMASLAVTNWPKPIPLIPCLSWTTASSVFTTGVLSRAVNWRELEKQYATHTVYEEEIISMLEYCGTDSFRMGQEFVKNAPGSFDGLDLTQELLQSGQQVALRSSYSGRPASDQDSSVLMGRRERDGLDQMLSAVSSSAPHLDMLHAKSIACGSGQRQSLQRESLCFMKGVMDECTHIANFSVPVDPSLIIIVQAKEDAYVPRTGVRSLQEIWPGCEVRYLNGGHISAYLFKQGLFRQAIYDAYDRFLHKYSSL | soluble
12 | MSKRDYYETLGVSQDASEKEVKKAYKKLAMKYHPDRTQGDKSKEETFKEVKEAYEILNDDQKRAAYDQYGHAAFEQGGNGGGGGGHGGGFGQDFGDIFGDIFGGGGGGRGRQRQQRGSDLRYNVDLSLEDAVKGKSLEIKVPTYVSCEPCDGSGAKKGTSAKTCSTCHGHGQVQMRQGLFAVQQTCPTCSGKGKVIADKCTSCRGQGRVEKTKTLSVKIPAGVDTGDRIRLSGEGEAGEHGAPAGDLYVQVNVRDHEIFVRDENHLYCEVPISFVTAALGGDIEVPTLGGKVKLKVPKETQTGKMFRLRGKGVKSVRSSTTGDLMCKVVIETPVNLSGDQADLLRQLEEKMASSSKKHSPKETGFFDGVKKFFDDLKS | not soluble
13 | MFEKSFTLCDMEPTEINGGRFYARPLHNDERIDDSPALQLVDAHLTVDEARTAWNHDTIYTWAVCEQTNVEMIALAALHITETATVLDIAPVGDPNRKLPNDPVLTPKTVGDAVTEIRGPITRWCTAHGINISN | not soluble
14 | MAKRLSKQQLAKAIANTLETPPQPKAGRRRNRRRQRSAVQQLQPTQAGISMAASAQGAMVRIRNPAVSSSRGGITVLTHSELSAEIGVTDSIVVSSELVMPYTVGTWLRGVAANWSKYSWLSVRYTYIPSCPSSTAGSIHMGFQYDMADTVPVSVNQLSNLRGYVSGQVWSGSAGLCFINGTRCSDTSTAISTTLDVSKLGKKWYPYKTSADYATAVGVDVNIATPLVPARLVIALLDGSSSTAVAAGRIYCTYTIQMIEPTASALNN | soluble
15 | VTVQDGNFSFSLESVKKLKDLQEPQEPRVGKLRNFAPIPGEPVVPILCSNPNFPEELKPLCKEPNAQEILQRLEEIAEDPGTCEICAYAACTGC | soluble
16 | MIRRAPTTLQLSHDDVTSLIDDLNEQKLKQQLNIEKTKYFQGKNGGSLHSNTDFQDTSQNIEDNNNDNDNDIDEDDDMSSYNDKAASVAHTRVLNSLHLSTDSNTAHETSNANDNHNPFYIREE | not soluble
17 | SLRAKNQLFLLSPHYLRQVKESSGSRLIQQRLLHQQQPLHPEWAALAKKQLKGKNPEDLIWHTPEGISIKPLYSKRDTMDLPEELPGVKPFTRGPYPTMYTFRPWTIRQYAGFSTVEESNKFYKDNIKAGQQGLSVAFDLATHRGYDSDNPRVRGDVGMAGVAIDTVEDTKILFDGIPLEKMSVSMTMNGAVIPVLANFIVTGEEQGVPKEKLTGTIQNDILKEFMVRNTYIFPPEPSMKIIADIFEYTAKHMPKFNSISISGYHMQEAGADAILELAYTLADGLEYSRTGLQAGLTIDEFAPRLSFFWGIGMNFYMEIAKMRAGRRLWAHLIEKMFQPKNSKSLLLRAHCQTSGWSLTEQDPYNNIVRTAIEAMAAVFGGTQSLHTNSFDEALGLPTVKSARIARNTQIIIQEESGIPKVADPWGGSYMMECLTNDVYDAALKLINEIEEMGGMAKAVAEGIPKLRIEECAARRQARIDSGSEVIVGVNKYQLEKEDTVEVLAIDNTSVRNRQIEKLKKIKSSRDQALAERCLAALTECAASGDGNILALAVDASRARCTVGEITDALKKVFGEHKANDRMVSGAYRQEFGESKEITSAIKRVHKFMEREGRRPRLLVAKMGQDGHDRGAKVIATGFADLGFDVDIGPLFQTPREVAQQAVDADVHAVGVSTLAAGHKTLVPELIKELNSLGRPDILVMCGGVIPPQDYEFLFEVGVSNVFGPGTRIPKAAVQVLDDIEKCLEKKQQSV | not soluble
18 | MGEAAVAEGPCPLLEDSFTRFSSQSNVYGLAGGADGRGELLAATLKGKVLGFRYQDLRQKIRPVAKELQFNYIPVDAEIVSIDTFNKSPPKRGLVVGITFIKDSGDKGSPFLNIYCDYEPGSEYNLDSIAESCLNLELQFTPFQLCHAEVQVGDQLETVFLLSGNDPAIHLYKENEGLHQFEEQPVENLFPELTNLTSSVLWLDVHNLPGSSQRLSALGCQSGYVRVAHVDQKNQEILQTWTIQQDGPISRVIVFSLSASEATQDSPQQEGYSLLVASMLEPAVVYWDLLNKGLDDQLLLPGSDQFDSVLCGLVTDVDLDGQLEVLVATYGQELLCYKYRGLPEDSRGFRLLWRRSFASPLLAMAHVDLTGDGLRELAVISLKGVHILQHSLIQASELVLTRLRHQVEQRKHQQGLGDRVGPRPVEHPAS | soluble
19 | MSLEHQLANVYETKIRRNEHPTIPRPLVTFEPAAIRSKPSSPISELEVFTSEQLIKVTSSIRWKTLSSAVLGAGFKWHQTFVNRHVSKDYYCDDVEREFQTFLSNVGVDGTDALGMMTAAILEDVAITEATYESFKVRVFVTAGISNAVDAAKAHLRKRNEATVGTINTWVFIEGTLPDAAYVQALMTATEAKGRALAEKEILDPVTGTLATGTSTDSVMIASSQTGTYFPYAGTITPLGQAIGKLVYDATIQAVTDNEKRRLEREGHHHHHH | soluble

Reference: the DeepSol protein solubility set
